This test deals with OpuABC-SS, OpuABC subunit of the ABC transporter OpuA with a C-terminal TwinStrepII-tag (Lactococcus lactis). As to the kind of experiment: SEC; affinity-purified OpuA reconstituted in MSP1D1 nanodiscs (DOPE/DOPC/DOPG; OpuA/MSP1D1/lipid 1:20:2000 or 1:20:1000), Superdex 200 Increase 10/300 GL, 50 mM KPi pH 7.0, 200 mM KCl; peak fraction on SDS-PAGE. (In gel filtration, larger molecules generally elute earlier.)

Usually stoichiometry N stands for the number of molecules, sites or subunits per partner or assembly.

For the substance “OpuABC-SS, OpuABC subunit of the ABC transporter OpuA with a C-terminal TwinStrepII-tag (natural protein)”, the stoichiometry N was found to be 2.

Source of the values: PMC8199443.
